The record followed here is US20160304565A1 (US Dept. of Health and Human Services, published 2016).

The data set concerns the molecule itself. Description: gel filtration chromatography (self-association). In general terms: SEC sorts molecules by how far they enter the pores of the column.

B1: E. coli-produced, properly folded RSV G0-dTM (67-298) protein of the RSV-A2 strain, C-terminal His6 tag (other)
chain: HKVTPTTAIIQDATSQIKNTTPTYLTQNPQLGISPSNPSEITSQITTILASTTPGVKSTLQSTTVKTKNTTTTQTQPSKPTTKQRQNKPPSKPNNDFHFEVFNFVPCSICSNNPTCWAICKRIPNKKPGKKTTTKPTKKPTLKTTKKDPKPQTTKSKEVPTTKPTEEPTINTTKTNIITTLLTSNTTGNPELTSQMETFHSTSSEGNPSPSQVSTTSEYPSQPSSPPNTPRQHHHHHH
notes: also called REG; bacterially produced RSV-A2 G
In the case of B1, the binding result is given as “binds”.
